# Data reported in patent US20180223372A1, “IDENTIFICATION OF PREDICTIVE BIOMARKERS ASSOCIATED WITH WNT PATHWAY INHIBITORS” (OncoMed Pharmaceutical, Inc., priority 2015, published 2018).
# B1: OMP-18R5: anti-FZD IgG2 antibody binding FZD1, FZD2, FZD5, FZD7, FZD8; ATCC deposit PTA-9541; heavy/light chain SEQ ID NO:11 and 12 (antibody)
# heavy: EVQLVESGGGLVQPGGSLRLSCAASGFTFSHYTLSWVRQAPGKGLEWVSVISGDGSYTYYADSVKGRFTISSDNSKNTLYLQMNSLRAEDTAVYYCARNFIKYVFANWGQGTLVTVSSASTKGPSVFPLAPCSRSTSESTAALGCLVKDYFPEPVTVSWNSGALTSGVHTFPAVLQSSGLYSLSSVVTVPSSNFGTQTYTCNVDHKPSNTKVDKTVERKCCVECPPCPAPPVAGPSVFLFPPKPKDTLMISRTPEVTCVVVDVSHEDPEVQFNWYVDGVEVHNAKTKPREEQFNSTFRVVSVLTVVHQDWLNGKEYKCKVSNKGLPAPIEKTISKTKGQPREPQVYTLPPSREEMTKNQVSLTCLVKGFYPSDIAVEWESNGQPENNYKTTPPMLDSDGSFFLYSKLTVDKSRWQQGNVFSCSVMHEALHNHYTQKSLSLSPGK
# light: DIELTQPPSVSVAPGQTARISCSGDNIGSFYVHWYQQKPGQAPVLVIYDKSNRPSGIPERFSGSNSGNTATLTISGTQAEDEADYYCQSYANTLSLVFGGGTKLTVLGQPKAAPSVTLFPPSSEELQANKATLVCLISDFYPGAVTVAWKADSSPVKAGVETTTPSKQSNNKYAASSYLSLTPEQWKSHRSYSCQVTHEGSTVEKTVAPTECS
# modifications: Heavy chain amino acid sequence; Light chain amino acid sequence
# Experiments:
# OMP-LU02 lung tumor = assay: OMP-LU02 NSCLC xenograft, OMP-18R5 vs control antibody; assay type: in vivo, NOD/SCID mice; conditions: OMP-LU02 adenocarcinoma; 15-20 mg/kg intraperitoneally weekly; tumor volume vs control antibody
# Description: (§1) The non-small cell lung cancer (NSCLC) tumor xenograft models OMP-LU02, OMP-LU11, OMP-LU24, OMP-LU25, OMP-LU33, OMP-LU45, and OMP-LU56 (and other OncoMed models described herein) were established at OncoMed Pharmaceuticals from minimally passaged, patient-derived tumor specimens. The tumor specimens were examined by a pathologist and classified as lung tumors. OncoMed relies on these classifications unless further analyses are done on any specific tumor and a reclassification is deemed necessary. […] Tumor-bearing mice were randomized into groups (n=8-10 per group) and treated with control antibody or anti-FZD antibody OMP-18R5. The antibodies were dosed at 15-20 mg/kg and were administered intraperitoneally on a weekly basis. […] Data are expressed as mean±S.E.M.
# (§2) To determine if a tumor was responsive to anti-FZD antibody OMP-18R5, tumor volume data from mice treated with the control antibody were compared with tumor volume data from mice treated with OMP-18R5.
# OMP-LU11 lung tumor = assay: OMP-LU11 NSCLC xenograft, OMP-18R5 vs control antibody; assay type: in vivo, NOD/SCID mice; conditions: OMP-LU11 squamous cell carcinoma; 15-20 mg/kg intraperitoneally weekly; tumor volume vs control antibody
# Description: as §1, §2
# OMP-LU24 lung tumor = assay: OMP-LU24 NSCLC xenograft, OMP-18R5 vs control antibody; assay type: in vivo, NOD/SCID mice; conditions: OMP-LU24 squamous cell carcinoma; 15-20 mg/kg intraperitoneally weekly; tumor volume vs control antibody
# Description: as §1, §2
# OMP-LU25 lung tumor = assay: OMP-LU25 NSCLC xenograft, OMP-18R5 vs control antibody; assay type: in vivo, NOD/SCID mice; conditions: OMP-LU25 large cell carcinoma; 15-20 mg/kg intraperitoneally weekly; tumor volume vs control antibody
# Description: as §1, §2
# OMP-LU33 lung tumor = assay: OMP-LU33 NSCLC xenograft, OMP-18R5 vs control antibody; assay type: in vivo, NOD/SCID mice; conditions: OMP-LU33 carcinoma; 15-20 mg/kg intraperitoneally weekly; tumor volume vs control antibody
# Description: as §1, §2
# OMP-LU45 lung tumor = assay: OMP-LU45 NSCLC xenograft, OMP-18R5 vs control antibody; assay type: in vivo, NOD/SCID mice; conditions: OMP-LU45 adenocarcinoma; 15-20 mg/kg intraperitoneally weekly; tumor volume vs control antibody
# Description: as §1, §2
# OMP-LU56 lung tumor = assay: OMP-LU56 NSCLC xenograft, OMP-18R5 vs control antibody; assay type: in vivo, NOD/SCID mice; conditions: OMP-LU56 carcinoma; 15-20 mg/kg intraperitoneally weekly; tumor volume vs control antibody
# Description: as §1, §2
# [1] = test system: genes in the Wnt, Notch, and stem cell pathways; Wnt pathway target genes including AXIN2 and LEF1; assay: pharmacodynamics (PD) biomarker analysis; assay type: in vivo; conditions: data not shown
# Procedure: In addition, a pharmacodynamics (PD) biomarker analysis was performed and confirmed inhibition of genes in the Wnt. Notch, and stem cell pathways by treatment with OMP-18R5.
molecule,measurement,setting,value
B1,Classification,OMP-LU02 lung tumor,Non-responder
same,Classification,OMP-LU11 lung tumor,Responder
same,Classification,OMP-LU24 lung tumor,Responder
same,Classification,OMP-LU25 lung tumor,Non-responder
same,Classification,OMP-LU33 lung tumor,Responder
same,Classification,OMP-LU45 lung tumor,Non-responder
same,Classification,OMP-LU56 lung tumor,Non-responder
same,Wnt pathway target genes including AXIN2 and LEF1,[1]; OMP-18R5 as a single agent,down-regulated significantly
same,"genes in the Wnt, Notch, and stem cell pathways",[1]; treatment with OMP-18R5,inhibition
